Laboratory results from PMC4686660, “MLLT1 YEATS domain mutations in clinically distinctive Favourable Histology Wilms tumours” (Nature Communications, 2015).

Legend:
Experiment in all cases: ITC; YEATS domain in the measurement cell (90-130 uM), histone peptides in the injection syringe (1.2 mM); 50 mM Hepes pH 7.4, 300 mM NaCl, 5 mM beta-mercaptoethanol, 25 °C; MicroCal ITC200 and TA Nano microcalorimeters; triplicate
[1] = molecular target: MLLT1 YEATS domain polypeptide p.111_113NPP>K (human) (UniProt Q03111)
[2] = molecular target: wild-type MLLT1 YEATS domain polypeptide (residues 1-138 of human MLLT1) (human) (UniProt Q03111)
[3] = molecular target: T1, wild-type MLLT1 YEATS domain polypeptide (residues 1-138 of human MLLT1) (human, UniProt Q03111 1-138); conditions: both partners purified
T1 construct: MLLT1 (ENL), human, YEATS domain, residues 1-138; codon-optimized DNA in pET28 with a thrombin cleavage site between the 6His tag and the protein; also called ENL; YEATS1; source: E. coli BL21(pLysS), purified (Ni-NTA sepharose, size exclusion chromatography)
T1 sequence (looked up): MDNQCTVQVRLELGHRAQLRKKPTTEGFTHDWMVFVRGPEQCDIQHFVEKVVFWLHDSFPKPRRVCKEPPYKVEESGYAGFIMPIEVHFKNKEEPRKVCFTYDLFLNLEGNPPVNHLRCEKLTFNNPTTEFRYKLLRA

[4] = molecular target: T2, MLLT1 YEATS domain polypeptide p.112_114PPV>L (human, UniProt Q03111 1-138, p.112_114PPV>L); conditions: both partners purified
T2 construct: Somatic mutation found in tumours; source: E. coli BL21(pLysS), purified (Ni-NTA sepharose, size exclusion chromatography)
T2 sequence (looked up): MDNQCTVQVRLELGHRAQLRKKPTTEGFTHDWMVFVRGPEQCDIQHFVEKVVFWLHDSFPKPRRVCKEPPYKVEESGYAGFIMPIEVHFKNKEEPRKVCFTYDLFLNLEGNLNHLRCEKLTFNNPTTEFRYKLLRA

H3K27ac histone H3 tail peptide
Kd [1]: 330 µM
Kd [2]: 140 µM

B1: H3K9ac histone H3 tail peptide (peptide)
chain: ARTKQTARKST
modifications: acetyl-lysine at K9
Kd [3]: 60 µM
Kd [4]: 107 µM
